# In publication PMC2119506:
# Biological target: CSVTCG binding protein (human (endogenous in A549))
# Experiment: radioligand binding
substance,measurement,value
thrombospondin (from UniProt P07996 19-1170) (natural protein),percent inhibition of binding,64 % inhibition
